Experiment: soluble on expression in E. coli; label from the status in PepcDB or PDB records

Sequence | soluble on expression in E. coli
MGSDKIHHHHHHGEDEKKPEIVVDPAEKTIEYYIAGKVTEGTTALSGVEVKAGEVTATTDAEGAYKLTVDSKKMYTVTFSKEGYMSIDNATATIADNAANRSMVSLSVKLSKKAPEKEVKADAEEEVVVTDKGDSNISQAEAAVIIPPKAIETTTTVSVTPYEEPAAVTTTVTPGNNVETPVAIANIEVETAKEVTLAKPVTLAIINKASEHTTFENVEVYNQKTTTRAGENWNKVADAIYDSETNSYKFTLPAGASLSGKYSMRVKSSKTTGKERIGETNKEEKKSNEGNMTAIPEYKINFEATAGWEYTVSPEKALMNAGVDAADAQGMATTINSAIEAQEGTTGTYKVAHELIAGISGNHILYYLNQAKYCEKTYTFKISGGRTVTITLKFYTGMQITYTNVEASQHSGGKI | not soluble
MAIETILVINKSGGLIYQRNFTNDEQKLNSNEYLILASTLHGVFAIASQLTPKALQLTQQTNIENTIPYIPYVGMSSNRSDTRNGGGNNNKHTNNEKLGSFKGDDFFKEPFTNWNKSGLRQLCTDQFTMFIYQTLTGLKFVAISSSVMPQRQPTIATTDKPDRPKSTSNLAIQIADNFLRKVYCLYSDYVMKDPSYSMEMPIRSNLFDEKVKKMVENLQ | soluble
MSNQLSPKPPVNPIVMGKIGSAYGIRGWLRVFSSTEDADSIFDYQPWFIQSKSGWQLVEIEGWKYHNQDLIIKVKGADDRDAANLLTNCEIVVDSSQLPDLGVGDYYWKDLIGCQVVTVTGYELGKIIDMMETGSNDVMVIKANLKDAFGVKERLVPFLTEQVVKRVDLSAQTIEVDWDPGFLEHHHHHH | soluble
MGSDKIHHHHHHMIILVGGEKGGSGKSCLAQNIAVFLTNEVQASVIMVDCDPQRTTSDWIQARNNNPKLPAINCVQLYGKIRNDLLSLEQHYDYVVVDCGGQDNLALRATMSVASYVLMPLRPKRRDLKTVSHMDDIVSTCLMINPKMKASFVITQCPSLPNQASRITEAKDVCRTYDINVLDAVNYCRNIYDDSEESGLSVFELEPQGKAADEMRSIACELLDITDAKQLIEQRNTASNVTPMRGNYGTSRSQEKRFVM | not soluble
MTNISIPGNWQTCDVEAMDGDFDDNMLQFLGSFEEVLPEGVEVETKKGMKKKNKPKKVENTERPEEDAKCVEERRLAKKLRRKEQMAANRKQKKERLAKRKQKEAESSAKKSENATETTTEKPKEQKKRKGGENGDTGKPKKSKKEASKKTDISAWKQFYFLPNEVLEAIEQMGFSEPTEIQSAVLPAAVRDRQDVLGAAETGSGKTLAFGIPLVARLLESSDDSQETESTEVRGPRALIVAPTRELVIQIMKHINALISTTQLIATSIVGGLAQVKQERIISQQRPDIVVATPGRLWAMMQEAETGEFLAEWKDLKCLVVDETDRMVEEGYFAELTHILNKIHEESEKEKLQTLVFSATLTFAKAQDVAEEEKKKAKELSSQQKIQRLIKLTGLRENKHKVIDLTRQMGTAGCLVEARINCGNLLEKDTSLVYLLTRYPGRTIVFVNSIDAARRLYSVLKSVNIDPMILHAKMIQKQRLKNLEKFSESKNAVLLATDVAARGLDIQGIDHVIHYQVPKKVEIYIHRSGRTARASHRGLTVVLVDPPSRQFYMKLCKGLNRMQDLNVFPIDFEPLMNAIKKRVRLASEIDSLGFRCKKIKMSESWFEKAARAADLDYDETRHREMDGLNLEVDTMVQKSRQLQAQLRTELSLPLPRVDGSDSMKTKYITPEIVARLRSVGDNAIDVLNQKIDETKEWKRKSRKATREDEMNSMKKSLKSSQKNKERLAEKKKKEKAAKVTKLSETD | not soluble
MIVIKTYQEENASALWDVFFNTVRKVNRKDYSNEQVTAWAPESFDTDVWKNKMQSLNPFIAEIDGVIVGYSDLQDDGLIDHFFCHYQHQGKGVGSALMTHILELAKERKLPRVYSHVSITAKPFYERFGFTVVKPQCIDVRGEQLINYVMERQ | not soluble
SMSEHSAIVTWKRKDSEAFTDNQYSRAHTWEFDGGSKILASASPHVVPVPLSVEANVDPEEAFVAALSSCHMLVFLSIAAKQRYLVESYTDNAVGILGKNSKGKTSVTKVVLRPQVVFSGTSKPTLQQLEKMHHLAHENCFIANSVETEVVTEII | soluble
MGSDKIHHHHHHMSPKAAIHNRSGSFSDRWIAYCQQRNIPYKTVDCHSSDIIEELADCSFLMWNWSQTYAEDMLIARGLIKAVESMGIRVFPNSETCWHFDDKVAQKYLMEALGVPMVKSYVFLDRARALEWARKTEYPKVFKLRGGAGSSNVFLVNDINKAERLINKAFSTGFPPVSRWNALSERWWQFKRDKTFISFFNISRGIFRALIKNPTLERLPVQRNYAYFQDFVPDNDSDIRVIAIGKRAFGIKRMVREGDFRASGSGKILYDPELIPEACIRMTFDLAKKTRSQSLVLDFIFSDGSPLVVEMSYAFASHGYLSCPGYWRNDMTWVEGSFHPEDFMVDDLIVSSVERS | not soluble
MAHHHHHHMKEYTGNRSVPTTIQNKKKSITEEINKSLHTQDSKNNQNNYEICLSDVSVSTISNSSGIDSDLYEEVIKKIKKEKKRKRKESKRDIYKEKVKYDKKESNSNDENKNDRGNEKDRKNNSDIENNSDSEYINDKEKDRKKRKHIDIDKKKRNKESHHHVNKKKDKNISTRKKRKYTSSLSSESYERRKDKKKKKEKYRNSESSYKSMVDENIPKDPFNPLLLAYEKKEKKKYRKNDEHNDLNDRWKHDRYENTSDDEDINIEKAYENSKPYFDPHEFPKILWKSKAGGVCVPQISDDKK | not soluble
MRNAHAVEAMRVPHPVRGTVSLVEWHMARARNHINVLEENMTLLMEQAHANESLFYRLLHLQSRLVAADSLDEMLVRFHRWARDLGLAGATLRLFPDRWRLGAPSRYTHLALNRQAFEPLRIQRLGQSQHYLGPLNGPELLVVLEHHHHHH | soluble
PDGDFVDLAWSEDPHQARHKPRLVVFHGLEGSLHSPYAHGLIHAAMQRGWLGVVMHFRGCSGEPNRNHRIYHSGETEDGTWFLHWLKREFGPAPTAAVGYSLGGNMLGCLLAEEGDRCPLDAAVIVSAPFMLEACSYHMDKGFSRVYQRYLLNLLKANASRKLKAYPGSLPVDLRQLKGMRRIREFDDMITAKIHGFADALDYYRQCSAMPRLSDITKPTLIIHAKDDPFMDHHSIPPQEQLPANVEYQLTEQGGHVGFVSGTLRKPEMWLERRIPDWLNRWLE | not soluble
MESLASLYKNHIATLQERTRDALARFKLDALLIHSGELFNVFLDDHPYPFKVNPQFKAWVPVTQVPNCWLLVDGVNKPKLWFYLPVDYWHNVEPLPTSFWTEDVEVIALPKADGIGSLLPAARGNIGYIGPVPERALQLGIEASNINPKGVIDYLHYYRSFKTEYELACMREAQKMAVNGHRAAEEAFRSGMSEFDINIAYLTATGHRDTDVPYSNIVALNEHAAVLHYTKLDHQAPEEMRSFLLDAGAEYNGYAADLTRTWSAKSDNDYAQLVKDVNDEQLALIATMKAGVSYVDYHIQFHQRIAKLLRKHQIITDMSEEAMVENDLTGPFMPHGIGHPLGLQVHDVAGFMQDDSGTHLAAPAKYPYLRCTRILQPGMVLTIEPGIYFIESLLAPWREGQFSKHFNWQKIEALKPFGGIRIEDNVVIHENNVENMTRDLKLA | soluble
MNKPVSSIPQSKEELELAINSIFDKLMADYRTIPVELTRERNVEGNIKGTQVSVCDTVAYLIGWGKLVLKWHRLKAQGLPVEFPESGFKWNQLGLLAEHFHEQYADWKYEALLKELESTVNELLSLISSLSNYDLYETTWYDKWTLGRMIQFNTSSPMKNMRSKVRRFKKNKGLLLEHHHHHH | soluble
MGSDKIHHHHHHMNSGGYMAIPPGAILPESLPEFKIFMRNREGKYVLWAADGNRVTVAQLAKLSESGVQDVFVDIEESFKYEQYLEANLGKILDNQGITVDRKAAIFSRVSTNVVKAAFETSLKSGAMGMETLQRTQKMIENAMKFITDSNSLPALAKMIGHDYETYEHAMKVTWWTVAFISENPEILTYCQKDEISDAEQISETLRSCGVCALLHDIGKAYVPQEVINKNGPLTEIEWEIMKRHPLSGLAMLLDSELPAFVKKAIVQHHEDFDGGGYPMNLEGTNITVLARVLRIMDVFDAMTSRRPYKDPLSPMKVIQIMIGTPSHPEDNAEPAQDPRDRGMGRCFDHELLGKFIIFIGNVKLD | not soluble
MGSDKIHHHHHHMSNTLLFRPNEARALSALFRTGGLTRASLARELDLTRSTTGTLVQNLVDAGLARERESTTGNEAEPKVGRPGIVVEIAGSGVFFLGAYIGVNRIDVIAIDLSGTVRAKATRPFSGAASRPAQAMELIVALVDEVRRTLPPGARPHGLNVALPGFLDGDGETFHAAILGWHGVSLAQPISESIDLDVPVLLENDANAVAVAETYRSAPPDGKGDDSLVVLIENGVGGGIVSNGKLHRGQLGGAGEIGHMPIGEAGFVYDAVRPGRWETFIGKDALLARYAHISGVIGSLDAFIAVLASGDPTALACARDWARWLVRGLATLACVLQPGRIILAGSVSAIYPFVAEQTEALLAASLIEGYPTPRVETSSTGNDGPALGAAYLLHQAMLAGNTRPHMRDVAVL | not soluble
MNFLDAVYNAGVVGAGGAGFPTHLKMTKEVGTFIVNGAECEPLLEVDKFLMREKTYELIKGMEIIAGNLKAARVVLGLKKKYKVEIKKLSETIKELDSNVELFLMDNFYPAGDEQIMVKDITGKSIPAGGIPLDVDTVVSNVGTVINVYEAIEEKPVTKKYVSVLGEVNNPVMLEVPIGTSFEECIKRAGGVKIKNYAVIEGGPMMGKIVHRDELAEKAVIKTTGALIILPEDHYVIKRKERPEAHILNESRAACIQCRMCTDMCPRYLIGHKLRPHRVMRAMGMGEQDEEILKEALICCECNVCELFACPMGISPKSTNTYLKGVFREKGVRYDGNKEIPSEHEMRDYRKIPVNRLIARLNLSRYYNNKVADLQELKADKVKIFLSQHIGKPAVPLVKEGDRVIEGQRIAEVGREEFGANIHASINGVVTKVEKSYIEIDGMV | not soluble
MERARVIAEAAAHISRELGAAAIMVSGDLNFEGIETGEIPVYYISMRPKSIIDHLVATSKDGKSPVKELGDQLTREASGNVEYVQHAAAIEYALEGPKNGIVVGVIETRGSSSIIVHNLDDNPLIKAMKECEERVNPEVMNAVLKIAFDIALTGREGKKIGAAFIVGDSEEVLKRSHQIILNPYEGHEEAHRNILDRRNWESIKEFALLDGVFVIDETGIVRAAGRYLDVDGKNIDIEKGLGGRHVSAAAISRDTVAISVTVSESGGVLRVYKDAKETICMESLQPASRYV | soluble
MLMEPQFLRLVSHGANVLDPLSRIEPAAVGMMAGALQKGLAETFTPEAMQDPPRVGLAGFFKQLSDPEVQKALGVLFLFLKALGKAFGHMNEERKTLEAMMAKMMPKK | soluble
MSLSKPLFIFEMANNHMGNVEHGVALIRAIRESCQGFDFDFGFKLQYRNLDTFIHSSFKGRDDVKYVKRFEETRLQPEQMQKLVAEMKANGFKAICTPFDEESVDLIEAHGIEIIKIASCSFTDWPLLERIARSDKPVVASTAGARREDIDKVVSFMLHRGKDLTIMHCVAEYPTPDDHLHLARIKTLRQQYAGVRIGYSTHEDPDLMEPIMLAVAQGATVFEKHVGLPTDQYGINNYSANPEQVRRWLAAAARALAMLGDGEDDAVSETEQASLRSLRRGVFATRPVAAGEALTADNVSFAFPPVEGQLTANEWSKYVRYTAKTPIAADAPVMAADLEPVNEGHHHHHH | soluble
MHPRSKLSQAQRELAVDLFEEGYGSRAVANRLGVRREQVRHLEDRFRLHGRLCLVSKRTKRQYSFDTKMEILRRHKAGELKSDLAKEYGLSSPALINHWVWQVNKGGPDALRPKPKGRPKSSARPAPVTEEDKLRRENELLKAEVAYLKKLRDLRDQRRGLEHHHHHH | not soluble
